Reference: patent US20260207767A1 (ANAVEON, published 2026)

T1: IL-2R CD122-CD132 on Jurkat-PD1+CD122+ cells (UniProt P14784 27-551; P31785 23-369)
T1 sequence (looked up) 1: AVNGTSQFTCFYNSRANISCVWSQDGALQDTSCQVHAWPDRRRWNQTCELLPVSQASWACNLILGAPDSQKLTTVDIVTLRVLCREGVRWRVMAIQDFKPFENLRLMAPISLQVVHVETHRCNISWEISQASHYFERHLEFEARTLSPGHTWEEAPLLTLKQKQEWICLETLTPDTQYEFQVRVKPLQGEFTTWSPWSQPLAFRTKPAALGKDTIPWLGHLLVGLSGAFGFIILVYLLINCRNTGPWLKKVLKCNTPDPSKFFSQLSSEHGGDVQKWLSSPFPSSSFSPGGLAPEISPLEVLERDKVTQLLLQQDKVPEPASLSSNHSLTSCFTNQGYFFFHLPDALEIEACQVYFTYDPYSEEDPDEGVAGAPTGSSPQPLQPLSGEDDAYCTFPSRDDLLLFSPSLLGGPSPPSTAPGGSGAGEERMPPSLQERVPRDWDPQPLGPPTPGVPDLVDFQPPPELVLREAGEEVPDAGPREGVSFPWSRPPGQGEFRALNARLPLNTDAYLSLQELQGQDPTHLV
T1 sequence (looked up) 2: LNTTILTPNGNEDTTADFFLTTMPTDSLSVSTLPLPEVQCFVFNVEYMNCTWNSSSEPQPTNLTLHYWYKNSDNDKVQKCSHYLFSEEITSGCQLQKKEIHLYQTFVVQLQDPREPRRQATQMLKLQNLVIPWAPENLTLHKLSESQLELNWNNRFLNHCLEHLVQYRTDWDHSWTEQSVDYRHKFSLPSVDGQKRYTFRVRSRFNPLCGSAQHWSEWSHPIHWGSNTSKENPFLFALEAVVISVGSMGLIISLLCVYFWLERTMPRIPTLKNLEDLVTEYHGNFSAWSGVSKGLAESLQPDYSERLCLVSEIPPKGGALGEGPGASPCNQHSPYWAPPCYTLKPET

B1: MDS446 (bispecific antibody, human IgG1, kappa, L234A L235A)
heavy 1: QVQLVQSGAEVKKPGASVKVSCKASGYTFTNFYIHWVRQAPGQGLEWMGSIYPNYGITAYNQKFKDRVTMTVDTSTSTAYMELRSLRSDDTAVYYCARGYSYAMDYWGQGTTVTVSSASTKGPSVFPLAPSSKSTSGGTAALGCLVKDYFPEPVTVSWNSGALTSGVHTFPAVLQSSGLYSLSSVVTVPSSSLGTQTYICNVNHKPSNTKVDKRVEPKSCDKTHTCPPCPAPEAAGGPSVFLFPPKPKDTLMISRTPEVTCVVVDVSHEDPEVKFNWYVDGVEVHNAKTKPREEQYNSTYRVVSVLTVLHQDWLNGKEYKCKVSNKALAAPIEKTISKAKGQPREPQVYTLPPSREEMTKNQVSLTCLVKGFYPSDIAVEWESNGQPENNYKTTPPVLDSDGSFFLTSKLTVDKSRWQQGNVFSCSVMHEALHNHYTQKSLSLSPGK
light: DIQMTQSPSSVSASVGDRVTITCSASQGISGDLNWYQQKPGKAPKLLIYHTSQLHSDVPSRFSGSGSGTDFTLTISSLQPEDFATYYCQGYSKDLLTFGGGTKLEIKRTVAAPSVFIFPPSDEQLKSGTASVVCLLNNFYPREAKVQWKVDNALQSGNSQESVTEQDSKDSTYSLSSTLTLSKADYEKHKVYACEVTHQGLSSPVTKSFNRGEC
heavy 2: AIRLTQSPSSFSASTGDRVTITCKASQSVDYGGGNFHLRPRDLISNINVIVLELKGSETTFMCEYADETATIVEFLNRWITFSQSIISTLTPTSSSTKKTQLQLEHLLLDLQMILNGINNYKNPKLTRMLTFKFYMPKKATELKHLQCLEEELKPLEEVLNLAQSKGGGGDSYMNWYQQKPGKAPKLLIYAASNLESGVPSRFSGSGSGTDFTLTISSLQSEDFATYYCQQSNEDPYTFGGGTKVEIKGGGGSGGGGSGGGGSEVQLVQSGAEVKKPGESLKISCKGSGYAFTNYLIEWVRQMPGKGLEWMGVINPGSGGTNYNEKFKGQVTISADKSISTAYLQWSSLKASDTAMYYCARWRGEGYYAYFDVWGQGTTVTVSSGGGGSGGGGSQVQLVQSGAEVKKPGASVKVSCKASGYTFTNFYIHWVRQAPGQGLEWMGSIYPNYGITAYNQKFKDRVTMTVDTSTSTAYMELRSLRSDDTAVYYCARGYSYAMDYWGQGTTVTVSSASTKGPSVFPLAPSSKSTSGGTAALGCLVKDYFPEPVTVSWNSGALTSGVHTFPAVLQSSGLYSLSSVVTVPSSSLGTQTYICNVNHKPSNTKVDKRVEPKSCDKTHTCPPCPAPEAAGGPSVFLFPPKPKDTLMISRTPEVTCVVVDVSHEDPEVKFNWYVDGVEVHNAKTKPREEQYNSTYRVVSVLTVLHQDWLNGKEYKCKVSNKALAAPIEKTISKAKGQPREPQVYTLPPSREEMTKNQVSLYCLVKGFYPSDIAVEWESNGQPENNYKTTPPVLDSDGSFFLYSKLTVDKSRWQQGNVFSCSVMHEALHNHYTQKSLSLSPGK
B2: TMU471 (bispecific antibody, human IgG1, kappa, L234A L235A)
heavy 1: QVQLVQSGAEVKKPGASVKVSCKASGYTFTNFYIHWVRQAPGQGLEWMGRIYPNYGITAYNQKFKDRVTMTVDTSTSTAYMELRSLRSDDTAVYYCARGYSYAMDYWGQGTTVTVSSASTKGPSVFPLAPSSKSTSGGTAALGCLVKDYFPEPVTVSWNSGALTSGVHTFPAVLQSSGLYSLSSVVTVPSSSLGTQTYICNVNHKPSNTKVDKRVEPKSCDKTHTCPPCPAPEAAGGPSVFLFPPKPKDTLMISRTPEVTCVVVDVSHEDPEVKFNWYVDGVEVHNAKTKPREEQYNSTYRVVSVLTVLHQDWLNGKEYKCKVSNKALAAPIEKTISKAKGQPREPQVYTLPPSREEMTKNQVSLTCLVKGFYPSDIAVEWESNGQPENNYKTTPPVLDSDGSFFLTSKLTVDKSRWQQGNVFSCSVMHEALHNHYTQKSLSLSPGK
light: DIQMTQSPSSVSASVGDRVTITCSASQGISGDLNWYQQKPGKAPKLLIYHTSQRHSDVPSRFSGSGSGTDFTLTISSLQPEDFATYYCQGYSKDLLTFGGGTKLEIKRTVAAPSVFIFPPSDEQLKSGTASVVCLLNNFYPREAKVQWKVDNALQSGNSQESVTEQDSKDSTYSLSSTLTLSKADYEKHKVYACEVTHQGLSSPVTKSFNRGEC
heavy 2: AIRLTQSPSSFSASTGDRVTITCKASQSVDYGGGNFHLRPRDLISNINVIVLELKGSETTFMCEYADETATIVEFLNRWITFSQSIISTLTPTSSSTKKTQLQLEHLLLDLQMILNGINNYKNPKLTRMLTFKFYMPKKATELKHLQCLEEELKPLEEVLNLAQSKGGGGDSYMNWYQQKPGKAPKLLIYAASNLESGVPSRFSGSGSGTDFTLTISSLQSEDFATYYCQQSNEDPYTFGGGTKVEIKGGGGSGGGGSGGGGSEVQLVQSGAEVKKPGESLKISCKGSGYAFTNYLIEWVRQMPGKGLEWMGVINPGSGGTNYNEKFKGQVTISADKSISTAYLQWSSLKASDTAMYYCARWRGEGYYAYFDVWGQGTTVTVSSGGGGSGGGGSQVQLVQSGAEVKKPGASVKVSCKASGYTFTNFYIHWVRQAPGQGLEWMGRIYPNYGITAYNQKFKDRVTMTVDTSTSTAYMELRSLRSDDTAVYYCARGYSYAMDYWGQGTTVTVSSASTKGPSVFPLAPSSKSTSGGTAALGCLVKDYFPEPVTVSWNSGALTSGVHTFPAVLQSSGLYSLSSVVTVPSSSLGTQTYICNVNHKPSNTKVDKRVEPKSCDKTHTCPPCPAPEAAGGPSVFLFPPKPKDTLMISRTPEVTCVVVDVSHEDPEVKFNWYVDGVEVHNAKTKPREEQYNSTYRVVSVLTVLHQDWLNGKEYKCKVSNKALAAPIEKTISKAKGQPREPQVYTLPPSREEMTKNQVSLYCLVKGFYPSDIAVEWESNGQPENNYKTTPPVLDSDGSFFLYSKLTVDKSRWQQGNVFSCSVMHEALHNHYTQKSLSLSPGK
B3: QAB373 (bispecific antibody, human IgG1, kappa, L234A L235A)
heavy 1: QVQLVQSGAEVKKPGASVKVSCKASGYTFTNFYIHWVRQAPGQGLEWMGSIYPNYGITAYNQKFKDRVTMTVDTSTSTAYMELRSLRSDDTAVYYCARGYSYAMDYWGQGTTVTVSSASVAAPSVFIFPPSDEQLKSGTASVVCLLNNFYPREAKVQWKVDNALQSGNSQESVTEQDSKDSTYSLSSTLTLSKADYEKHKVYACEVTHQGLSSPVTKSFNRGECDKTHTCPPCPAPEAAGGPSVFLFPPKPKDTLMISRTPEVTCVVVDVSHEDPEVKFNWYVDGVEVHNAKTKPREEQYNSTYRVVSVLTVLHQDWLNGKEYKCKVSNKALAAPIEKTISKAKGQPREPQVYTLPPSREEMTKNQVSLTCLVKGFYPSDIAVEWESNGQPENNYKTTPPVLDSDGSFFLTSKLTVDKSRWQQGNVFSCSVMHEALHNHYTQKSLSLSPGK
light 1: DIQMTQSPSSVSASVGDRVTITCSASQGISGDLNWYQQKPGKAPKLLIYHTSQLHSDVPSRFSGSGSGTDFTLTISSLQPEDFATYYCQGYSKDLLTFGGGTKLEIKSSASTKGPSVFPLAPSSKSTSGGTAALGCLVKDYFPEPVTVSWNSGALTSGVHTFPAVLQSSGLYSLSSVVTVPSSSLGTQTYICNVNHKPSNTKVDKRVEPKSC
heavy 2: EVQLVQSGAEVKKPGESLKISCKGSGYAFTNYLIEWVRQMPGKGLEWMGVINPGSGGTNYNEKFKGQVTISADKSISTAYLQWSSLKASDTAMYYCARWRGEGYYAYFDVWGQGTTVTVSSASTKGPSVFPLAPSSKSTSGGTAALGCLVKDYFPEPVTVSWNSGALTSGVHTFPAVLQSSGLYSLSSVVTVPSSSLGTQTYICNVNHKPSNTKVDKRVEPKSCDKTHTCPPCPAPEAAGGPSVFLFPPKPKDTLMISRTPEVTCVVVDVSHEDPEVKFNWYVDGVEVHNAKTKPREEQYNSTYRVVSVLTVLHQDWLNGKEYKCKVSNKALAAPIEKTISKAKGQPREPQVYTLPPSREEMTKNQVSLYCLVKGFYPSDIAVEWESNGQPENNYKTTPPVLDSDGSFFLYSKLTVDKSRWQQGNVFSCSVMHEALHNHYTQKSLSLSPGK
light 2: not shown
B4: RIB426 (bispecific antibody, human IgG1, kappa, L234A L235A)
heavy 1: QVQLVQSGAEVKKPGASVKVSCKASGYTFTNFYIHWVRQAPGQGLEWMGRIYPNYGITAYNQKFKDRVTMTVDTSTSTAYMELRSLRSDDTAVYYCARGYSYAMDYWGQGTTVTVSSASVAAPSVFIFPPSDEQLKSGTASVVCLLNNFYPREAKVQWKVDNALQSGNSQESVTEQDSKDSTYSLSSTLTLSKADYEKHKVYACEVTHQGLSSPVTKSFNRGECDKTHTCPPCPAPEAAGGPSVFLFPPKPKDTLMISRTPEVTCVVVDVSHEDPEVKFNWYVDGVEVHNAKTKPREEQYNSTYRVVSVLTVLHQDWLNGKEYKCKVSNKALAAPIEKTISKAKGQPREPQVYTLPPSREEMTKNQVSLTCLVKGFYPSDIAVEWESNGQPENNYKTTPPVLDSDGSFFLTSKLTVDKSRWQQGNVFSCSVMHEALHNHYTQKSLSLSPGK
light 1: DIQMTQSPSSVSASVGDRVTITCSASQGISGDLNWYQQKPGKAPKLLIYHTSQRHSDVPSRFSGSGSGTDFTLTISSLQPEDFATYYCQGYSKDLLTFGGGTKLEIKSSASTKGPSVFPLAPSSKSTSGGTAALGCLVKDYFPEPVTVSWNSGALTSGVHTFPAVLQSSGLYSLSSVVTVPSSSLGTQTYICNVNHKPSNTKVDKRVEPKSC
heavy 2: EVQLVQSGAEVKKPGESLKISCKGSGYAFTNYLIEWVRQMPGKGLEWMGVINPGSGGTNYNEKFKGQVTISADKSISTAYLQWSSLKASDTAMYYCARWRGEGYYAYFDVWGQGTTVTVSSASTKGPSVFPLAPSSKSTSGGTAALGCLVKDYFPEPVTVSWNSGALTSGVHTFPAVLQSSGLYSLSSVVTVPSSSLGTQTYICNVNHKPSNTKVDKRVEPKSCDKTHTCPPCPAPEAAGGPSVFLFPPKPKDTLMISRTPEVTCVVVDVSHEDPEVKFNWYVDGVEVHNAKTKPREEQYNSTYRVVSVLTVLHQDWLNGKEYKCKVSNKALAAPIEKTISKAKGQPREPQVYTLPPSREEMTKNQVSLYCLVKGFYPSDIAVEWESNGQPENNYKTTPPVLDSDGSFFLYSKLTVDKSRWQQGNVFSCSVMHEALHNHYTQKSLSLSPGK
light 2: not shown

Biological target: T1, IL-2R CD122-CD132 on Jurkat-PD1+CD122+ …
Test: cell-based or functional assay

Q: B1 was tested. Which “EC50 value for pSTAT5 induction, Jurkat-PD-1+CD122+ cells” value (“EC50 value for pSTAT5 induction” below) did it give?
A: 0.06 nM

Q: For B2, which “EC50 value for pSTAT5 induction” value is on record?
A: 0.06 nM

Q: For B3, which “EC50 value for pSTAT5 induction” value is on record?
A: 0.07 nM

Q: Which “EC50 value for pSTAT5 induction” value does the source give for B4 here?
A: 0.12 nM
